Assay [1] deals with T1, PTPRD extracellular domain, His-tagged (Acro Biosystems, PTD-H52H9) (Homo sapiens (Human), UniProt P23468 21-1265).
T1 construct: only the extracellular domain stood in the assay; also called rPTPRD; rPTPRD-LBD; not shown: His tag (labelled with the His-Tag Labeling Kit RED-tris-NTA)
T1 sequence: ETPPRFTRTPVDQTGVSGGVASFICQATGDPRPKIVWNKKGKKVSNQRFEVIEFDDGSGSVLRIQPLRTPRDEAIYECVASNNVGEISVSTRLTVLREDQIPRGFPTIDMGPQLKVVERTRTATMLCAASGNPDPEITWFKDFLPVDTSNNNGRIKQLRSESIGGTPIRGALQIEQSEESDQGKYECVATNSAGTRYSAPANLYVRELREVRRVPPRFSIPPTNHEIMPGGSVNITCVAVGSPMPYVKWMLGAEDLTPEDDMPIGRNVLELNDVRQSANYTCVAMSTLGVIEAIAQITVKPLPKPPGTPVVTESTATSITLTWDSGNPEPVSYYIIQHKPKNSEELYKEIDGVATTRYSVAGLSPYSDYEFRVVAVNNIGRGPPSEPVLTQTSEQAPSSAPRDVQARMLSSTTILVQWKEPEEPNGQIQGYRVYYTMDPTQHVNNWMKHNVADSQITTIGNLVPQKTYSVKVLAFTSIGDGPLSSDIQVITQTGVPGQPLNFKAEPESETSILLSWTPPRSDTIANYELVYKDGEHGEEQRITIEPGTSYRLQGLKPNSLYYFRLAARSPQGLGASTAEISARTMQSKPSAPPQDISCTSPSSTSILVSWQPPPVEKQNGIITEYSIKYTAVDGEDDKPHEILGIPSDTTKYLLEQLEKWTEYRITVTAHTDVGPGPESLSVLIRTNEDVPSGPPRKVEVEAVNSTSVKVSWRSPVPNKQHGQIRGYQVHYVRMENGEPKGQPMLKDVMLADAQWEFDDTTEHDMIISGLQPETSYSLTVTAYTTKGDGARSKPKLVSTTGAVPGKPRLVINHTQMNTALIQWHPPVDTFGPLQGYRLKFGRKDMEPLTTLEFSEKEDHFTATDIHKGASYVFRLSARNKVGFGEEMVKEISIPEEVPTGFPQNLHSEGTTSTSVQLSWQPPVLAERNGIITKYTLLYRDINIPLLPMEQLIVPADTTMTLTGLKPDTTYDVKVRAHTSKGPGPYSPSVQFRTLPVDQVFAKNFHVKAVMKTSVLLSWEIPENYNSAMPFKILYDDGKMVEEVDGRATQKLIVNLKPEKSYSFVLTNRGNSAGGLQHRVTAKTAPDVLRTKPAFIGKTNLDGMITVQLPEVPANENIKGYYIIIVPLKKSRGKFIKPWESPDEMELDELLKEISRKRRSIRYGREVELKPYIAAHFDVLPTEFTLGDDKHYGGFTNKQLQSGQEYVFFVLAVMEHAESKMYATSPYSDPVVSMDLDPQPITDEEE
The assay is described as follows: microscale thermophoresis, fluorescently labelled PTPRD, unlabelled asprosin titrated. On the procedure:
The microscale thermophoresis (MST) assay was performed with the Monolith NT.115 from NanoTemper Technologies. PTPRD (Acro Biosystems, PTD-H52H9) was fluorescently labeled according to the manufacturer's protocol (His-Tag Labeling Kit RED-tris-NTA, NanoTemper). A solution of unlabeled asprosin was serially diluted according to the manufacturer's protocol. After labeled PTPRD and unlabeled asprosin were mixed and incubated at room temperature for 30 minutes, samples were loaded into glass capillaries (Monolith NT.115 Capillaries, NanoTemper). Measurements were carried out according to manufacturer's protocol: 40% power and 40% MST power. Assays were repeated three times and KD's were calculated using the NanoTemper analysis software.

Assay [2] addresses T1, PTPRD extracellular domain, His-tagged …. The assay is described as follows: SPR (Biacore T200), PTPRD amine-coupled on CM5 chip, asprosin injected, steady-state analysis. The method, then:
Surface plasmon resonance (SPR) studies were performed using Biacore T200 with PTPRD (Acro Biosystems, PTD-H52H9) covalently immobilized on an S series CM5 sensor chip via amine coupling. To avoid protein aggregation, […] used in SPR experiments were purified by gel filtration in a buffer containing 25 mM Tris-HCl (pH 8.0), 100 mM NaCl and 5 mM DTT, stored at 4° C., and used within 48 hr with minimum concentration process. Asprosin was injected in a series of concentrations from […] to 7.8125 nM was injected at 30 μl/min over the sensor chip at room temperature. Sensorgram traces subtracted with the reference and zero-concentration traces were analyzed using BIA Evaluation software (GE Healthcare Bio-Sciences). Nonlinear steady-state analysis was performed to compute Kd.
A general note: In SPR one partner is held on a chip, and binding of the other changes the refractive index at the surface.

Assay [3] has as its target T2, recombinant PTPRD-his protein, extracellular domain (Creative BioMart, PTPRD-36H) (Homo sapiens (Human), UniProt P23468 21-1265, biotinylated with EZ-Link-Sulfo-NHS-Biotin in the BLI assay).
T2 construct: only the extracellular domain stood in the assay; Used in the co-immunoprecipitation and in BLI; also called rPTPRD-his; PTPRD-6his; not shown: 6xHis tag
T2 sequence: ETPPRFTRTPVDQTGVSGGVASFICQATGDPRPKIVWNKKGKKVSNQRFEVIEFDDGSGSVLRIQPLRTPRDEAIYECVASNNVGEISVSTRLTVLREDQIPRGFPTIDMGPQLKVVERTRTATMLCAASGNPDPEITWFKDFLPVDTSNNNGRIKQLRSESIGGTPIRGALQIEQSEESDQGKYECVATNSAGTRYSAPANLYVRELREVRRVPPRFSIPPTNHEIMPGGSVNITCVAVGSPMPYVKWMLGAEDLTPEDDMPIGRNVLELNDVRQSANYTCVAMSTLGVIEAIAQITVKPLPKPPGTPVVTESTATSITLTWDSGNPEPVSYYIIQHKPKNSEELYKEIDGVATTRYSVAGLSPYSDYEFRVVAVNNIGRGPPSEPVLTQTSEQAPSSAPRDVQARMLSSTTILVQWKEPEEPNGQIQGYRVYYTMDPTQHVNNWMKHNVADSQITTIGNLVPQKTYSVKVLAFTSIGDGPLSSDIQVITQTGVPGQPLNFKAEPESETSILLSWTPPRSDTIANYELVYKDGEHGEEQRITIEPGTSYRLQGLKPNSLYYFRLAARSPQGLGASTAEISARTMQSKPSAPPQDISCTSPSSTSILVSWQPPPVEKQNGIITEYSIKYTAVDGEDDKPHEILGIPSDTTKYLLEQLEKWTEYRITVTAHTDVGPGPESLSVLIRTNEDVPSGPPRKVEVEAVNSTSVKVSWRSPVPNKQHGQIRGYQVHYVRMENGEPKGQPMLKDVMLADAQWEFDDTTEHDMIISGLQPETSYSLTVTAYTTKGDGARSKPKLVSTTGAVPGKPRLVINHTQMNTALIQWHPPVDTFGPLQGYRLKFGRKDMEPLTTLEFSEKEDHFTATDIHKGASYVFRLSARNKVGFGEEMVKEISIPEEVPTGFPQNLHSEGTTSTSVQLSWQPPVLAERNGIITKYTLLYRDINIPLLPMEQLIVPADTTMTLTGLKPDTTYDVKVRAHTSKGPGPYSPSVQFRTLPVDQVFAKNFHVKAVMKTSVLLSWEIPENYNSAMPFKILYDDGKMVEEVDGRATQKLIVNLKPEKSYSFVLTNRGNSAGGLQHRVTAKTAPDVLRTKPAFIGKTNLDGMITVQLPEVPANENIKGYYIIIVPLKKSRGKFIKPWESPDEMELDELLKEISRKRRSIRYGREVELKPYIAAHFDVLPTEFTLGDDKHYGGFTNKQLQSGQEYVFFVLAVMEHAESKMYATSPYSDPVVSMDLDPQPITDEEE
The assay is described as follows: bio-layer interferometry (Octet RED96), biotinylated PTPRD on SSA biosensors, asprosin 1.23-900 nM, 1:1 global fit. On the procedure:
(§1) Binding affinity of asprosin to PTPRD was measured on Pall ForteBio's Octet RED96 system. The PTPRD protein (Creative BioMart, PTPRD-36H) was labeled with Biotin using EZ-Link-Sulfo-NHS-Biotin (ThermoFisher Scientific, 21217) and desalted by Zeba™ Spin Desalting Columns. The biotin-labeled PTPRD (20 μg/ml) was loaded on the super streptavidin (SSA) biosensors for 300 seconds. Following 20 seconds of baseline in kinetics buffer, the loaded biosensors were dipped into a series of 3-fold diluted human asprosin (1.23-900 nM) for 300 seconds to record association kinetics and then dipped into a kinetic buffer for 600 seconds to record dissociation kinetics. Kinetic buffer without asprosin was set to correct the background. For fitting of KD value, ForteBio's data analysis software was used to fit the curve by a 1:1 binding model and the global fitting method was applied.

The target of assay [4] is T2, recombinant PTPRD-his protein, …. The assay can be described thus: bio-layer interferometry (Octet RED96), biotin-labelled PTPRD on super streptavidin biosensors, asprosin 1.23-900 nM in solution, 1:1 global fit. The method, then: as §1
A general note: Biolayer interferometry detects binding as a change in optical thickness at a sensor tip.

Kd, koff and kon data for one molecule are collected here from patent US20240424057A1 (CASE WESTERN RESERVE UNIVERSITY, published 2024).

B1: recombinant human asprosin (ligand, UniProt P35555 2732-2871, looked up)
chain: STNETDASNIEDQSETEANVSLASWDVEKTAIFAFNISHVSNKVRILELLPALTTLTNHNRYLIESGNEDGFFKINQKEGISYLHFTKKKPVAGTYSLQISSTPLYKKKELNQLEDKYDKDYLSGELGDNLKMKIQVLLH
notes: domain: cleaved asprosin; Unlabelled analyte in SPR, MST and BLI, and the recombinant asprosin used in IP/MS, ELISA and slice electrophysiology; Only the BLI and ELISA methods call it human; also called rAsprosin; recombinant asprosin
In the case of B1, the results for the Kd in assay [1], in assay [2] and in assay [3] were 4.2 nM, 36.8 nM and 57 nM, respectively. Besides, in assay [4], the koff came out at 0.000377 s⁻¹. The kon in assay [4] came out at 6610 M⁻¹ s⁻¹.

Broadly, the Kd is a measure of binding affinity in units of concentration. As usually defined, the koff is the first-order rate constant of dissociation. What is called kon is a measure of how fast the partners come together.
